These results are taken from PMC11117632.

Data set [1] deals with inactivated SARS-CoV-2 virus (whole virion) (SARS-CoV-2 strain CN2). Briefly: EIS. The settings on record: 5' SH, 3 x iSp18 spacer; binding buffer 50 mM HEPES pH 7.4, 100 mM NaCl, 5 mM KCl, 2 mM MgCl2, 1 mM CaCl2; room temperature in SELEX, ELONA temperature not stated.
Data set [2] has the same test system. Briefly: ELONA competition. As to conditions: binding buffer 50 mM HEPES pH 7.4, 100 mM NaCl, 5 mM KCl, 2 mM MgCl2, 1 mM CaCl2; room temperature in SELEX, ELONA temperature not stated.
Data set [3] has the same test system. Briefly: ELONA. The settings on record: binding buffer 50 mM HEPES pH 7.4, 100 mM NaCl, 5 mM KCl, 2 mM MgCl2, 1 mM CaCl2; room temperature in SELEX, ELONA temperature not stated.

Sequence “GCAATGGTACGGTACTTCCATGGCTGGTGCTTGAGGTGTGTGTGGGGGTAGGGCCAAAAGTGCACGCTACTTTGCTAA [thiolated aptamer 6.9]” showed a binding signal (% impedance decrease) in data set [1] of 40. As usually defined, the Kd is the equilibrium constant for the complex coming apart. The low end stands for higher affinity, the high end for lower affinity. “GCAATGGTACGGTACTTCCATGGCTGGTGCTTGAGGTGTGTGTGGGGGTAGGGCCAAAAGTGCACGCTACTTTGCTAA [aptamer 6.9]” gave a binding signal (% signal decrease) in data set [2] of 56. For the same sequence, the Kd in data set [3] came out at 9.6 nM. In the case of “GCAATGGTACGGTACTTCCCGGGGCGGGCTGTCATGCCCATCCTACCGTGACCGCAAAAGTGCACGCTACTTTGCTAA [aptamer 6.8]”, the Kd in data set [3] turned out to be 21 nM.
